Source: paper PMC8778164, “Towards Complete Tumor Resection: Novel Dual-Modality Probes for Improved Image-Guided Surgery of GRPR-Expressing Prostate Cancer” (Pharmaceutics, 2022)

Tests used:
GRPR = target: T1, GRPR (Homo sapiens, UniProt P30550); assay: Competition binding assay against [111In]In-NeoB on PC-3 cells; conditions: IC50 of compound over IC50 of NeoB
T1 construct: host or cells: PC-3 cells (human prostate adenocarcinoma)
Protocol: GRPR-positive human-derived prostate adenocarcinoma epithelial PC-3 cells (ATCC, Manassas, VA, USA) were cultured in Ham’s F-12K (Kaighn’s) Medium (Gibco, Paisley, UK) supplemented with 10% fetal bovine serum, penicillin (100 units/mL) and streptomycin (100 µg/mL). Cells were routinely passaged and grown in tissue culture flasks at 37 °C in a humidified atmosphere with 5% CO2.
The affinity of all six probes for GRPR was determined using a competition binding assay. PC-3 cells were seeded in 12-well plates (2.5 × 10^5 cells/well) one day prior to the experiment. The next day, cells were washed with warm Dulbecco’s phosphate-buffered saline (PBS) (Gibco). Subsequently, cells were incubated for 1 h at 37 °C with 0.5 mL incubation medium (Ham’s F-12K, 20 mM HEPES, 1% BSA, pH 7.4) containing 10^−9 M [^111In]In-NeoB, in the presence or absence of increasing concentrations (10^−12 to 10^−6 M) of one of the six unlabeled probes or NeoB (positive control). After incubation, the medium was removed and cells were washed twice with cold PBS. To determine the amount of activity that was taken up by the cells, cells were lysed using 1 M NaOH for > 20 min at rt, then collected and measured in a γ-counter. To determine the amount of radioactivity added per well, samples of the incubation medium containing 10^−9 M [^111In]In-NeoB were also measured. The results are expressed as the percentage of added dose (%AD) and were normalized to the uptake of [^111In]In-NeoB (in the absence of cold compound). Data represent the mean ± standard deviation (SD) of triplicate wells.
Statistical analysis was performed using GraphPad Prism version 5.01 (GraphPad Software Inc., San Diego, CA, USA). The half-maximal inhibitory concentration (IC50) values were estimated by the log (inhibitor) vs. the normalized response fitting routine. To compare the uptake values of the two probes studied in vivo, an unpaired t-test was used with the significance levels set at 5%. The results are represented as mean ± standard deviation (SD).

[1] = Distribution coefficient (LogD7.4), shake-flask method; type: physicochemical; conditions: n-octanol/PBS pH 7.4, n = 3; read-out: Log D7.4
Protocol: Distribution coefficients (LogD7.4) for the ^111In-labeled compounds were determined by a shake-flask method. The experiments were performed in triplicate for each radioligand. A sample containing the radioligand (0.5–2.0 MBq) was dissolved in 1 mL solution of phosphate-buffered saline (0.01 M, pH 7.4) and n-octanol (v:v = 1:1). The vials were vortexed vigorously and then centrifuged at 10,000 rpm for 3 min, for phase separation. Samples (10 μL) of each phase were taken out and analyzed using a gamma counter. LogD7.4 values were calculated, using the following equation: LogD7.4 = log {(counts in n-octanol phase)/(counts in PBS phase)}.

[2] = Stability in PBS at 37 °C (iTLC); type: physicochemical; conditions: intact labeled ligand after incubation at 37 °C in PBS, n = 1
Protocol: (§1) Stability in PBS was determined by incubating 20 µL of the labeled compounds (∼11 MBq) in PBS (80 µL) at 37 °C. Radiochemical purity was determined by iTLC at 30 min, 1 h, 2 h and 4 h. Stability in the serum was carried out by adding 70 µL of the labeled compound (∼35 MBq) to 330 µL of mouse serum (Merck, Haarlerbergweg, The Netherlands). The mixture was incubated at 37 °C. At different time points (30 min, 1 h, 2 h and 4 h), an aliquot of the mixture (50 µL) was added to 50 µL ACN. The vial was vortexed and centrifuged at 10,000 rpm for 20 min and the supernatant was analyzed by iTLC.

[3] = Stability in mouse serum at 37 °C (iTLC); type: in vitro ADME; conditions: for Stability in Mouse Serum (%) 30 min / Stability in Mouse Serum (%) 1 h / Stability in Mouse Serum (%) 2 h / Stability in Mouse Serum (%) 4 h: intact labeled ligand after incubation at 37 °C in mouse serum, n = 1
Protocol: as §1

T1 sequence (P30550 whole entry): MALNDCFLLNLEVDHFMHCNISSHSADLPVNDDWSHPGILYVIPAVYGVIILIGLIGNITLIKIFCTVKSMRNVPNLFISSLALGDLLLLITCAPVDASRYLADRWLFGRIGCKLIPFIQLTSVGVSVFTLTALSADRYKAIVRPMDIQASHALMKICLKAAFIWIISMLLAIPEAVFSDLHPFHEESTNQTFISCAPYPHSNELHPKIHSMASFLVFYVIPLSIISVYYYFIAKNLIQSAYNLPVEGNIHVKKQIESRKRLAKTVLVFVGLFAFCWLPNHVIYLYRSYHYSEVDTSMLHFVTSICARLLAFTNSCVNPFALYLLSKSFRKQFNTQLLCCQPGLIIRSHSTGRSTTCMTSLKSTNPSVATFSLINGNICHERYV

CC(C)CC(CC(C)C)NC(=O)[C@H](Cc1c[nH]cn1)NC(=O)CNC(=O)[C@@H](NC(=O)[C@H](C)NC(=O)[C@H](Cc1c[nH]c2ccccc12)NC(=O)[C@H](CCC(N)=O)NC(=O)[C@@H](Cc1ccccc1)NC(=O)COCC(=O)Nc1ccc(CNC(=O)[C@H](CCCCNC(=O)OC2CCCC3C=NN=C(c4ccc(CNC(=O)CCCCC[N+]5=C(/C=C/C=C/C=C6N(C)c7ccc(S(=O)(=O)O)cc7C6(C)C)C(C)(C)c6cc(S(=O)(=O)[O-])ccc65)cc4)C3CC2)NC(=O)CN2CCN(CC(=O)O)CCN(CC(=O)O)CCN(CC(=O)O)CC2)cc1)C(C)C (some centres unmarked) [Compound 14]
Ratio Compound/NeoB (IC50) (GRPR): 24.6

CC(C)CC(CC(C)C)NC(=O)[C@H](Cc1c[nH]cn1)NC(=O)CNC(=O)[C@@H](NC(=O)[C@H](C)NC(=O)[C@H](Cc1c[nH]c2ccccc12)NC(=O)[C@H](CCC(N)=O)NC(=O)[C@@H](Cc1ccccc1)NC(=O)COCC(=O)Nc1ccc(CNC(=O)OC2CCCC3C=NN=C(c4ccc(CNC(=O)CCCCC[N+]5=C(/C=C/C=C/C=C6N(C)c7ccc(S(=O)(=O)O)cc7C6(C)C)C(C)(C)c6cc(S(=O)(=O)[O-])ccc65)cc4)C3CC2)cc1)C(C)C (some centres unmarked) [Compound 10]
Ratio Compound/NeoB (IC50) (GRPR): 12.9

CC(C)CC(CC(C)C)NC(=O)[C@H](Cc1c[nH]cn1)NC(=O)CNC(=O)[C@@H](NC(=O)[C@H](C)NC(=O)[C@H](Cc1c[nH]c2ccccc12)NC(=O)[C@H](CCC(N)=O)NC(=O)[C@@H](Cc1ccccc1)NC(=O)CCOCCOCCOCCOCCNC(=O)[C@H](CCCCNC(=O)OC1CCCC2C=NN=C(c3ccc(CNC(=O)CCCCC[N+]4=C(/C=C/C=C/C=C5N(C)c6ccc(S(=O)(=O)O)cc6C5(C)C)C(C)(C)c5cc(S(=O)(=O)[O-])ccc54)cc3)C2CC1)NC(=O)CN1CCN(CC(=O)O)CCN(CC(=O)O)CCN(CC(=O)O)CC1)C(C)C (some centres unmarked) [Compound 15]
Ratio Compound/NeoB (IC50) (GRPR): 11.2

CC(C)CC(CC(C)C)NC(=O)[C@H](Cc1c[nH]cn1)NC(=O)CNC(=O)[C@@H](NC(=O)[C@H](C)NC(=O)[C@H](Cc1c[nH]c2ccccc12)NC(=O)[C@H](CCC(N)=O)NC(=O)[C@@H](Cc1ccccc1)NC(=O)COCC(=O)Nc1ccc(CNC(=O)[C@H](CCCCNC(=O)OC2CCCC3C=NN=C(c4ccc(CNC(=O)CCCCC[N+]5=C(/C=C/C=C/C=C6N(C)c7ccc(S(=O)(=O)O)cc7C6(C)C)C(C)(C)c6cc(S(=O)(=O)[O-])ccc65)cc4)C3CC2)NC(=O)CN2CCN(CC(=O)O)CCN(CC(=O)O)CCN(CC(=O)O)CC2)cc1)C(C)C (some centres unmarked) [[^111In]In-14, metal not drawn]
logD [1]: -1.52 ± 0.1 | Stability in PBS (%) 30 min [2]: 74.2% | Stability in PBS (%) 1 h [2]: 48.5% | Stability in PBS (%) 2 h [2]: 30.9% | Stability in PBS (%) 4 h [2]: 33.7% | Stability in Mouse Serum (%) 30 min [3]: 94.6% | Stability in Mouse Serum (%) 1 h [3]: 94.1% | Stability in Mouse Serum (%) 2 h [3]: 94.0% | Stability in Mouse Serum (%) 4 h ([3]; 4 h): 94.1% | fraction unbound at 4 h ([3]; mouse serum, 4 h, read-out: Protein-Bound Fraction at 4 h (%) (converted)): 0.929

CC(C)CC(CC(C)C)NC(=O)[C@H](Cc1c[nH]cn1)NC(=O)CNC(=O)[C@@H](NC(=O)[C@H](C)NC(=O)[C@H](Cc1c[nH]c2ccccc12)NC(=O)[C@H](CCC(N)=O)NC(=O)[C@@H](Cc1ccccc1)NC(=O)COCC(=O)Nc1ccc(CNC(=O)[C@H](CCCCNC(=O)CCOCCOCCOCCOCCNC(=O)OC2CCCC3C=NN=C(c4ccc(CNC(=O)CCCCC[N+]5=C(/C=C/C=C/C=C6N(C)c7ccc(S(=O)(=O)O)cc7C6(C)C)C(C)(C)c6cc(S(=O)(=O)[O-])ccc65)cc4)C3CC2)NC(=O)CN2CCN(CC(=O)O)CCN(CC(=O)O)CCN(CC(=O)O)CC2)cc1)C(C)C (some centres unmarked) [Compound 12]
Ratio Compound/NeoB (IC50) (GRPR): 9.1

CC(C)CC(CC(C)C)NC(=O)[C@H](Cc1c[nH]cn1)NC(=O)CNC(=O)[C@@H](NC(=O)[C@H](C)NC(=O)[C@H](Cc1c[nH]c2ccccc12)NC(=O)[C@H](CCC(N)=O)NC(=O)[C@@H](Cc1ccccc1)NC(=O)CCOCCOCCOCCOCCNC(=O)[C@H](CCCCNC(=O)CCOCCOCCOCCOCCNC(=O)OC1CCCC2C=NN=C(c3ccc(CNC(=O)CCCCC[N+]4=C(/C=C/C=C/C=C5N(C)c6ccc(S(=O)(=O)O)cc6C5(C)C)C(C)(C)c5cc(S(=O)(=O)[O-])ccc54)cc3)C2CC1)NC(=O)CN1CCN(CC(=O)O)CCN(CC(=O)O)CCN(CC(=O)O)CC1)C(C)C (some centres unmarked) [Compound 13]
Ratio Compound/NeoB (IC50) (GRPR): 18.2

CC(C)CC(CC(C)C)NC(=O)[C@H](Cc1c[nH]cn1)NC(=O)CNC(=O)[C@@H](NC(=O)[C@H](C)NC(=O)[C@H](Cc1c[nH]c2ccccc12)NC(=O)[C@H](CCC(N)=O)NC(=O)[C@@H](Cc1ccccc1)NC(=O)CCOCCOCCOCCOCCNC(=O)[C@H](CCCCNC(=O)CCOCCOCCOCCOCCNC(=O)OC1CCCC2C=NN=C(c3ccc(CNC(=O)CCCCC[N+]4=C(/C=C/C=C/C=C5N(C)c6ccc(S(=O)(=O)O)cc6C5(C)C)C(C)(C)c5cc(S(=O)(=O)[O-])ccc54)cc3)C2CC1)NC(=O)CN1CCN(CC(=O)O)CCN(CC(=O)O)CCN(CC(=O)O)CC1)C(C)C (some centres unmarked) [[^111In]In-13, metal not drawn]
logD [1]: -1.8 ± 0.01 | Stability in PBS (%) 30 min [2]: 87.4% | Stability in PBS (%) 1 h [2]: 87.5% | Stability in PBS (%) 2 h [2]: 86.2% | Stability in PBS (%) 4 h [2]: 84.4% | Stability in Mouse Serum (%) 30 min [3]: 98.1% | Stability in Mouse Serum (%) 1 h [3]: 97.9% | Stability in Mouse Serum (%) 2 h [3]: 97.6% | Stability in Mouse Serum (%) 4 h ([3]; 4 h): 97.3% | Protein-Bound Fraction at 4 h (%) ([3]; mouse serum, 4 h): 5.6%

CC(C)CC(CC(C)C)NC(=O)[C@H](Cc1c[nH]cn1)NC(=O)CNC(=O)[C@@H](NC(=O)[C@H](C)NC(=O)[C@H](Cc1c[nH]c2ccccc12)NC(=O)[C@H](CCC(N)=O)NC(=O)[C@@H](Cc1ccccc1)NC(=O)CCOCCOCCOCCOCCNC(=O)OC1CCCC2C=NN=C(c3ccc(CNC(=O)CCCCC[N+]4=C(/C=C/C=C/C=C5N(C)c6ccc(S(=O)(=O)O)cc6C5(C)C)C(C)(C)c5cc(S(=O)(=O)[O-])ccc54)cc3)C2CC1)C(C)C (some centres unmarked) [Compound 11]
Ratio Compound/NeoB (IC50) (GRPR): 4.5
